Laboratory results: US20190300611A1 (ARCH ONCOLOGY, published 2019)

Legend:
[1] = target: T1, human CD47 (human, UniProt Q08722 19-292); test: cell-based ELISA on OV10 hCD47 cells
T1 construct: On the surface of OV10 cells transfected with human CD47, fresh human RBCs, Jurkat T cells or human breast cancer tissue; also called hCD47; integrin-associated protein (IAP)
Method: Binding activities of VLX4, VLX8, and VLX9 chimeric (murine-human) and humanized mAbs were determined using a cell-based ELISA assay with human OV10 hCD47 cells expressing cell surface human CD47. OV10 hCD47 cells were grown in IMDM medium containing 10% heat inactivated fetal bovine serum (BioWest; S01520). One day before assay, 3×10⁴ cells were plated in 96 well cell bind plates (Corning #3300, VWR #66025-626) and were 95-100% confluent at the time of assay. Cells were washed and various concentrations of purified antibodies added in IMDM 37° C. for 1 hr in […]. Cells were then washed with media and incubated for an additional hour at 37° C. with HRP labeled secondary anti-human antibody (Promega) diluted 1/2500 in media. Cells were washed three times with PBS, and the peroxidase substrate 3,3′, 5,5′-tetramethylbenzidine is added (Sigma; Catalog #T4444). Reactions were terminated by the addition of HCl to 0.7N, and absorbance at 450 nm is determined using a Tecan model Infinite M200 plate reader. The apparent binding affinities of these clones to human OV10 hCD47 cells was determined by non-linear fit (Prism GraphPad software).

[2] = target: T1, human CD47; test: flow cytometry on human RBCs
Method: Binding activities of chimeric (murine-human) and humanized VLX4, VLX8, and VLX9 mAbs to human CD47 on hRBCs were also determined using flow cytometry. hRBCs were incubated for 60 min on at 37° C. with various concentrations of the chimeric or humanized antibodies in a solution of phosphate buffered saline, pH 7.2, 2.5 mM EDTA (PBS+E). Cells were then washed with cold PBS+E, and incubated for an additional hour on ice with FITC labeled donkey anti-human antibody (Jackson Immuno Research Labs, West Grove, Pa.; Catalogue #709-096-149) in PBS+E. Cells were washed with PBS+E, antibody binding analyzed using a C6 Accuri Flow Cytometer (Becton Dickinson) and apparent binding affinities determined by non-linear fit (Prism GraphPad software) of the median fluorescence intensities at the various antibody concentrations.

T1 sequence (Q08722 other isoform, or with tags, fused parts or gaps limits assumed): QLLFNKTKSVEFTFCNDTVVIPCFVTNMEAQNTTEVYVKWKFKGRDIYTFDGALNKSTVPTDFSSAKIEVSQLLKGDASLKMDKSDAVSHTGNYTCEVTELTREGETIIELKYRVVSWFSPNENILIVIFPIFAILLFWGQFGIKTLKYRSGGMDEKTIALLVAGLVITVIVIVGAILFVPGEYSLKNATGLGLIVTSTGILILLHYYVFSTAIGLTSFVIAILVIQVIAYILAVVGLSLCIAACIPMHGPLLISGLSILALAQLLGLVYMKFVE

Row | Kd [1] | Kd [2] | Binder
1 | 0.214 nM | 0.099 nM | VLX4 IgG4 S228P (xi) (antibody) heavy: not shown light: DVLMTQTPLSLPVNLGDQASISCRSRQSIVHTNGNTYLGWFLQKPGQSPKLLIYKVSNRFSGVPDRFSGSGSGTDFTLTISRVEAEDLGVYYCFQGSHVPYTFGGGTKLEIKRTVAAPSVFIFPPSDEQLKSGTASVVCLLNNFYPREAKVQWKVDNALQSGNSQESVTEQDSKDSTYSLSSTLTLSKADYEKHKVYACEVTHQGLSSPVTKSFNRGEC
2 | 0.431 nM | 0.184 nM | VLX4 IgG2 (xi) (antibody) heavy: EVQLQQSGPELVKPGASVKMSCKASGYTFTNYVIHWVKRRPGQGLEWIGYIYPYNDGILYNEKFKGKATVTSDKSSSTAYMDLSSLTSEDSAVYYCTRGGYYVPDYWGQGTTLTVSSASTKGPSVFPLAPCSRSTSESTAALGCLVKDYFPEPVTVSWNSGALTSGVHTFPAVLQSSGLYSLSSVVTVPSSNFGTQTYTCNVDHKPSNTKVDKTVERKCCVECPPCPAPPVAGPSVFLFPPKPKDTLMISRTPEVTCVVVDVSHEDPEVQFNWYVDGVEVHNAKTKPREEQFNSTFRVVSVLTVVHQDWLNGKEYKCKVSNKGLPAPIEKTISKTKGQPREPQVYTLPPSREEMTKNQVSLTCLVKGFYPSDIAVEWESNGQPENNYKTTPPMLDSDGSFFLYSKLTVDKSRWQQGNVFSCSVMHEALHNHYTQKSLSLSPGK light: DVLMTQTPLSLPVNLGDQASISCRSRQSIVHTNGNTYLGWFLQKPGQSPKLLIYKVSNRFSGVPDRFSGSGSGTDFTLTISRVEAEDLGVYYCFQGSHVPYTFGGGTKLEIKRTVAAPSVFIFPPSDEQLKSGTASVVCLLNNFYPREAKVQWKVDNALQSGNSQESVTEQDSKDSTYSLSSTLTLSKADYEKHKVYACEVTHQGLSSPVTKSFNRGEC
3 | 0.225 nM | 0.303 nM | VLX4 IgG4 PE(xi) (antibody, Murine-human chimera; also called VLX4 IgG4PE chimeric mAb) heavy: not shown light: DVLMTQTPLSLPVNLGDQASISCRSRQSIVHTNGNTYLGWFLQKPGQSPKLLIYKVSNRFSGVPDRFSGSGSGTDFTLTISRVEAEDLGVYYCFQGSHVPYTFGGGTKLEIKRTVAAPSVFIFPPSDEQLKSGTASVVCLLNNFYPREAKVQWKVDNALQSGNSQESVTEQDSKDSTYSLSSTLTLSKADYEKHKVYACEVTHQGLSSPVTKSFNRGEC
